Test results from PMC7617670, “Activity Regulation of a Glutamine Amidotransferase Bienzyme Complex by Substrate-Induced Subunit Interface Expansion” (ACS catalysis, 2025).
Changes are numbered by the printed parent chain. Names may count otherwise.

Columns and labels:
Assay in all cases: ITC; 250 μM PabB titrated into 25 μM PabA in the cell; 25 °C; 50 mM Tris/HCl pH 7.5, 50 mM KCl, 5 mM MgCl2; without Cho and Gln; one set of sites
Details in all cases: both partners purified
[1] = target: T1, PabB, synthase subunit of aminodeoxychorismate synthase (ADCS) from Escherichia coli, wild type (Escherichia coli, UniProt P05041 1-453)
T1 construct: PabB, synthase subunit of ADCS, E. coli; the gene was cloned into pET28a; Form used for SEC, ITC and kinetics; TEV cleavage is told only of the proteins used for crystallization; also called wt PabB; ADCS synthase subunit; source: E. coli BL21-Gold (DE3), purified (Ni-IMAC, preparative gel filtration)
T1 sequence: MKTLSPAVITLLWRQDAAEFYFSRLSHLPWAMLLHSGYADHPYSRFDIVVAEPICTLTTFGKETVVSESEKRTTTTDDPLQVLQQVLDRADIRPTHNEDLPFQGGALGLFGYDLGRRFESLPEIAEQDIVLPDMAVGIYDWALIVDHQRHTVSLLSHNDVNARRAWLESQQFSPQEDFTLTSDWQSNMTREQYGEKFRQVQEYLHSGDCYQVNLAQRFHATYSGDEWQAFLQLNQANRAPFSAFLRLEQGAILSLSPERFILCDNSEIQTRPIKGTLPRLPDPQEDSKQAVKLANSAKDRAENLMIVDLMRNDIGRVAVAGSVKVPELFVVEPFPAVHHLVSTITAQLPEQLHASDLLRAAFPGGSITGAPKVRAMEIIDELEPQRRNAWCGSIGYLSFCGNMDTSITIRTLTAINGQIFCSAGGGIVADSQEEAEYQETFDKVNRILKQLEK

PabB variant bE119D = target: T2, PabB variant bE119D (Escherichia coli, UniProt P05041 1-453, bE119D)
T2 construct: PabB, synthase subunit of ADCS, E. coli; construct as m2 with one exchange; Made by QuikChange mutagenesis from the construct of m2; source: E. coli BL21-Gold (DE3), purified (Ni-IMAC, preparative gel filtration)
T2 sequence: T1 sequence with E119D

PabB variant bG207P = target: T3, PabB variant bG207P (Escherichia coli, UniProt P05041 1-453, bG207P)
T3 construct: PabB, synthase subunit of ADCS, E. coli; construct as m2 with one exchange; Made by QuikChange mutagenesis from the construct of m2; source: E. coli BL21-Gold (DE3), purified (Ni-IMAC, preparative gel filtration)
T3 sequence: T1 sequence with G207P

PabB variant bD308E = target: T4, PabB variant bD308E (Escherichia coli, UniProt P05041 1-453, bD308E)
T4 construct: PabB, synthase subunit of ADCS, E. coli; construct as m2 with one exchange; Made by QuikChange mutagenesis from the construct of m2; source: E. coli BL21-Gold (DE3), purified (Ni-IMAC, preparative gel filtration)
T4 sequence: T1 sequence with D308E

B1: PabA, glutaminase subunit of aminodeoxychorismate synthase (ADCS) from Escherichia coli, wild type (enzyme)
chain: MILLIDNYDSFTWNLYQYFCELGADVLVKRNDALTLADIDALKPQKIVISPGPCTPDEAGISLDVIRHYAGRLPILGVCLGHQAMAQAFGGKVVRAAKVMHGKTSPITHNGEGVFRGLANPLTVTRYHSLVVEPDSLPACFDVTAWSETREIMGIRHRQWDLEGVQFHPESILSEQGHQLLANFLHR
notes: PabA, class I glutaminase subunit of ADCS, E. coli; the gene was cloned into pET28a; Form used for SEC, ITC and kinetics; TEV cleavage is told only of the proteins used for crystallization; The G5H-Tag stands between the TEV site and the start methionine of PabA; also called wt PabA; ADCS glutaminase subunit; source: E. coli BL21-Gold (DE3), purified (Ni-IMAC, preparative gel filtration)
Kd [1]: 160 nM | Kd (PabB variant bE119D): 840 nM | Kd (PabB variant bG207P): 1700 nM | Kd (PabB variant bD308E): 1700 nM
